B1: Forkhead box protein P1, Q9H334 (parent)
chain: MMQESGTETKSNGSAIQNGSGGSNHLLECGGLREGRSNGETPAVDIGAADLAHAQQQQQQALQVARQLLLQQQQQQQVSGLKSPKRNDKQPALQVPVSVAMMTPQVITPQQMQQILQQQVLSPQQLQVLLQQQQALMLQQQQLQEFYKKQQEQLQLQLLQQQHAGKQPKEQQQVATQQLAFQQQLLQMQQLQQQHLLSLQRQGLLTIQPGQPALPLQPLAQGMIPTELQQLWKEVTSAHTAEETTGNNHSSLDLTTTCVSSSAPSKTSLIMNPHASTNGQLSVHTPKRESLSHEEHPHSHPLYGHGVCKWPGCEAVCEDFQSFLKHLNSEHALDDRSTAQCRVQMQVVQQLELQLAKDKERLQAMMTHLHVKSTEPKAAPQPLNLVSSVTLSKSASEASPQSLPHTPTTPTAPLTPVTQGPSVITTTSMHTVGPIRRRYSDKYNVPISSADIAQNQEFYKNAEVRPPFTYASLIRQAILESPEKQLTLNEIYNWFTRMFAYFRRNAATWKNAVRHNLSLHKCFVRVENVKGAVWTVDEVEFQKRRPQKISGNPSLIKNMQSSHAYCTPLNAALQASMAENSIPLYTTASMGNPTLGNLASAIREELNGAMEHTNSNESDSSPGRSPMQAVHPVHVKEEPLDPEEAEGPLSLVTTANHSPDFDHDRDYEDEPVNEDME

Values joined by “and” are separate entries in the source; they are usually repeats but may differ in a detail not shown here. Identical values can stand only once.

This series covers variants of B1. Conditions: Homo sapiens, 37 °C, GdnHCl, fluorescence, transition: 3, structure 2KIU, whole UniProt chain shown.

Denaturant m value and unfolding free energy data for three variants are collected here from FireProtDB (doi:10.1038/s41598-019-41819-5).

For S518C, the denaturant m value runs as follows: (pH 5) 3.2 kcal/mol/M and 1.4 kcal/mol/M; (pH 7.8) 2.7 kcal/mol/M and 2 kcal/mol/M.

For H520A, the denaturant m value (pH 5) turned out to be 5.8 kcal/mol/M and the denaturant m value (pH 7.8) was 6.6 kcal/mol/M. Besides, the unfolding free energy is, setting by setting: (pH 5) 17.9 kcal/mol; (pH 7.8) 20.2 kcal/mol.

With V539C, under “pH 5”, the denaturant m value is 3.1 kcal/mol/M and 1.1 kcal/mol/M; the unfolding free energy was 1.4 kcal/mol and 4.2 kcal/mol.
